The data set concerns the molecule itself. Kind of data set: SEC; Superdex 75 HR 30/10; Utr-SR1 in 20 mM Tris pH 8.0, 50 mM NaCl; Dys-SR1 in PBS; no DTT added.

The values that follow come from PMC3401230, “The Crystal Structures of Dystrophin and Utrophin Spectrin Repeats: Implications for Domain Boundaries” (PLoS ONE, 2012).

B1: Dystrophin N-terminal (repeat 1) spectrin repeat (domain or fragment, human, UniProt P11532 338-456, looked up)
chain: EVNLDRYQTALEEVLSWLLSAEDTLQAQGEISNDVEVVKDQFHTHEGYMMDLTAHQGRVGNILQLGSKLIGTGKLSEDEETEVQEQMNLLNSRWECLRVASMEKQSNLHRVLMDLQNQK
notes: dystrophin, human, residues 338-456 (first spectrin repeat); Without a reducing agent part of the protein is a dimer linked by a disulphide bond between C433 of each molecule; The model in PDB 3UUN holds residues 338-453 (monomer A) and 339-452 (monomer B); Tag and cleavage are told only as 'prepared in an equivalent manner' to Utr-SR1; also called Dys-SR1; source: E. coli BL21(DE3), purified in …
B1: the binding result is “binds”.
